Reference: the DeepSol protein solubility set

test: soluble on expression in E. coli; label from the status in PepcDB or PDB records

| Sequence | soluble on expression in E. coli |
| --- | --- |
| MSLKNTLILGIESSCDETAASVVKNGNEIISSVVASQIESHKRFGGVVPEIASRHHVEQITLVIEEALKQANVTMDDLDGVAVTEGPGLVGALLIGVNAAKTLAFMHNLPLVGVHHIAGHIYANRFETEFKFPLLSLVVSGGHTELVLMKADNEFEIIGETRDDAAGEAYDKVARTLGLAYPGGVQIDKLAKDGEDTFHFPRAMMDEGSFDFSFSGLKSSFINTLHNLRQRGEEPNPNDMAASFQASVVDVLVSKTIRAAKQYDVKQLLLAGGVAANQGLRERLIQEVKLELPETELIIPPLALCGDNAAMIAAAGTVSFLQGKRSGFDMNANPGLLLEDIEGHHHHHH | soluble |
| MTEAEDFAQLLQKLQNASPALPEGTSSTPTPSSSTGLLPNGKKTKGRVKIKMEYINNKLRRYTTFSKRKTGIMKKAFELSTLTGTQVMLLVASETGHVYTYATPKLQPMISSDTGKAMIQSCLNAPGGDGSDVQPSRTEFTFDSGNGGNGMRKRKMLSDVMSAESSNNSPSMPNFTPFLAPSMAPLFSTFGEDDYNNDESGDDSDSEEASSDIKEEYQGSPTMVKQETTEIDSVTASLQQRIKEAMRQAASNKQAIKKAKITPPSSNMNNAAFLNPFLLQGGANASNLLATAARKGDDAGSLTSNPFLSMGLNLQQLIESAAIASNE | not soluble |
| MAPKQPEKIENPPMASAPSSEKESGSTENEYGSSGEETNSSDDEHEEARDNVISTPLSFGQELVSFFKVENLTYLGIDEAKWIAYWDMVKDGPKKREVEKQLKKMLAMQMELFMMRTGFTKEVATVLFKQDNASSSGK | not soluble |
| MAHHHHHHMAVVVVQVGQCGNQLGDELWRQLKLTTNSGALPSPFFTRDRRARCVLVDSEPKVVTAVYERQKDVLRAENVIHGQSGRGNHWALGYYGVNDPLSHRAAENAVVARPFQVVKDQRRCDSHVVRNALRAIHAETRRTDDVMEFEAIIVLHSLVGGTGSGMATRLLEKIRYYFIEPLDSSLTVDECEEAEMMRHDGLDGMMMEKRRASYLVSITVAPQAVGELSTQGLNAALTLHALQENANAVLLLRNDDCIRVQEDSCAGGRPRGRGNTSFSTPSFSSIPSCATFKEINEVFLTMLLPILLYGRSTNAVGELVLKCSPNPREINNILTILPTPQRHYLRFKESVTVSRLYVLRGAMQNMPGVYPSVPIELIHTARSLRNPNLVTSREEVQVPKELLKGLKETAATRRSASVTLLQQMEGVLVLNEARELNAAVLFRLLRSAAMKVKAGAFLSTFEDMGMTAECIQAAIREVATRLSAAEEI | not soluble |
| MGSDKIHHHHHHAPGQTAQPGRPPTQPQGWSMTVGLAPVYGMAWQGSKDTALSIFPDLRVNYKDALFLSVPEGLGWNAVNANGWKAGPLLKARFGRNEDDGGSPFQIAGGSDALRGMGDIGIAGEAGAFVEKRFGTRQQWRARAEVRQGFGGHEGIVGDISLNWSGRTGRTILSAGPRATFASREYMQTYFGVDAVQASRTGLAASRLGGGLVSYGLGASIVQPLDRRRAVTVFGGADRLGGEPAGSSLIRERGQRTQFVVGVGYGFRFGL | not soluble |
| MMQTSTSSRVRRYPYQITLSLVLKGFYSPSAPSYDFCLVLLPTLFLIDLMPIKFSLHVTIGIGEATPVPIFFFSAPWYFRSGNPLPHCVRAYRCKVNFPFFRLGWSTWLHY | soluble |
| MGSDKIHHHHHHVMKVLLYSEGKKLFSKSGVGIALKHQMSALDKVGVKYTTNEEDSFDIVHINTIGPGAERVIKKSKKLGIPIIYHTHTTYEDFRNSFTLSNAIAPWLRKRLIKLYSSADFLISPTEYAKKLIMNYGITLPIKAVSNGVDNKKFTRSKSLAESFLSENHIRKPLVVSVGLPFERKGVIDFCQIADTRKDLTFYWFGAKISSLLPAKIRRLLKNPPDNVKFPGFIPQEMIIGPYSACDVFLFPSYEETEGIVVLEALATEAPIVLRDIPVYSEWMKHEENCLKGKDNQEFIKHIDRLLESNNLRKKLSSCGKETALERDLSIIGQKLKNIYLEVLDKKQ | not soluble |
| KGSAFAPGITAGMGVKYKLKPRINVGIEYSFTGLLTDALDALTDKSVWLEDPYKINDSWVKNKDATGALVLRITYDFGLRKTFCNKQ | not soluble |
| MGSDKIHHHHHHMRFEEAGCHGEFIQADLTKLPFSEPKFDVIFSEGVLHHTDSTEKAIKYLTTLLIPGGHFLFYVYKTKAPIREFTDDYVRNQLINMDDSQAWNELRSLTLLGKILGDLNIEVEIPEPILLLGIPAGRINIQRLFYWYICKAFYNPEWTIDEMNHVNFDWYRPLNCHRHTPEEIMTWCNQAGLKIERMNVQEAGITVVAKKE | not soluble |
| MGSDKIHHHHHHMAFFDLPLEELKKYRPERYEEKDFDEFWEETLAESEKFPLDPVFERMESHLKTVEAYDVTFSGYRGQRIKGWLLVPKLEEEKLPCVVQYIGYNGGRGFPHDWLFWPSMGYICFVMDTRGQGSGWLKGDTPDYPEGPVDPQYPGFMTRGILDPRTYYYRRVFTDAVRAVEAAASFPQVDQERIVIAGGSQGGGIALAVSALSKKAKALLCDVPFLCHFRRAVQLVDTHPYAEITNFLKTHRDKEEIVFRTLSYFDGVNFAARAKIPALFSVGLMDNICPPSTVFAAYNYYAGPKEIRIYPYNNHEGGGSFQAVEQVKFLKKLFEKG | soluble |
| AHHHHHHGSKVEGFVASLRNAETIDDLFAILKKKGAPVVEFDGMKKLVIVEGDFEGEKFWTEINGAKANLALGDAMLNAASVPFKCKRDFTGGNLILLDFDSIESNEFLIAYVSEKSGVYFHVKAEEVKEITKEEYDELKDRMPEFKAKSYSEEEMEGMGAFFG | soluble |
| MRAVVLVPFLKQQRENRDAASAPAAPGRSVEAKLEEAKGLALAIDLEVTQGLVVPVNQPRPATLFGTGKIEEIGHLLDETNSGLVIVDHPLTPVQQRNLEKQWNAKVIDRTGLILEIFGRRASTKEGTLQVDLAHLNYQKGRLVRSWTHLERQRGGAGFMGGPGETQIEADRRLLQDRIVKLEKELEQVVRTRQLHRAKRRKVPHPIVALVGYTNAGKSTLFNRITGAGVLAEDMLFATLDPTLRRMKLPHGRTVILSDTVGFISDLPTHLVAAFRATLEEVLEA | not soluble |
| MGSDKIHHHHHHMGILQTMFIGFDYGTANCSVAVMRENTPQLLTLENGSTLLPSMLCAPTREAVSEWLYRHHDVPTHSDENQALLRRAIAANRDEDIEVLRNSVQFGLASLQQYVEDPQEVYFVKSPKSFLGASGLKPQQVALFEDLVCAMMLHIKLQAESQLPEQIDQAVIGRPINFQGLGGDEANAQAQGILERAAHRAGFRDVVFQFEPVAAGLDFEATLSEEKRVLVVDIGGGTTDCSLLLMGPQWRERADRQQSLLGHSGCRIGGNDLDIALAFKCLMPLLGMGGETEKGTALPILPWWNAVAINDVPAQSDFYSTANGRLLNDLLRSARDADKVALLLKVWRQRLSYRLVRSAEESKIALSSAASVETALPFIQDDLATAIAQQGLEAALDQPLTRIMEQVRLALDSSQTTPDVIYLTGGSARSPLIKKALAAQLPGIPLAGGDDFGSVTAGLARWAQVVFR | not soluble |
| DRCYNCGGLDHHAKECKLPPQPKKCHFCQSISHMVASCPLKAQQGPSAQG | soluble |
| MVVISVIAIVLLLVYLDDKLGQFIFRNGRKTVVYPERRSDISLYINGRHLFSDYFAELGRARDHIHVLFYIIKNDETSAPFFQILKEKAAAGVKVRVLTDWVGSFGLPKALIRSLEESGVEFAYARKPRFPFFIYRLNRRNHRKITVIDGRVGYIGGFNIGREYNGKDANFGEWRDYHLKVNGEGVHDLQEQFLHDWEEATGRTVPDKHRYFPPLPAGAIRHQLVATNGAALEEQFIEVIRQAKKEIMIGSPYFIPSRPLFNELMQALRRGVRVTVLVPLKADHLFVKEAAYPYFYRLLKAGARIYRFYQGFYHAKTLVIDEEWCDVGTANFDRRSLFLNGEINCYVFDRGFTRLVKRAIERDLLRRRAADGRLLAKTFAS | not soluble |
| MPKIILVSHSKEIASGTKSLLKQMAGDVDIIPIGGLPDGSIGTSFDIIQEVLTKLEDDALCFYDIGSSEMNVDMAIEMYDGNHRVLKVDAPIVEGSFIAAVKLSIGGSIDDALAEIKQSFLEHHHHHH | soluble |
| MAHHHHHHMMRSSFVHKAAAAAAGGGMTATSSDHKMASLHKLLTGEVQFRNNALLKTCNIEHNFGATWKSDIEAYAKCLPADERSCLERQVARVMLTRYTTRELAEYCGEGPEHVDAVAREANIAQAKAHAQQYGADKLEAYVKAESKNAGWSEAETKSFLDAVKAAK | soluble |
| MVNTRPPKIDELLKIDPYLHDFQDEISRRYGVFLDYQRRIEECGGMEEFTSSYKQFGLNVQPDNSVKGLEWAPAAEKLALIGDFNNWDQNANVYKKEEHGKWSITVPAKEDGSCPIPHNSVIKIAVSRHGATHFKLSPWATFVTCPNPKETVIYHQNFWNPPEKYQLKEARPARPASLRIYEAHVGISSSEGKINTYREFADDVLPRIQKQGYNAIQLMAVMEHVYYASFGYQVSNFFAVSSRCGTPEDLKYLVDKAHSLGIFMLLDVVHSHASKNVEDGLNQWDGSNGGYFHDNARGYHNLWDSRLFDYTQTETLRFLLSNVRWWVEEYGFDGFRFDGVSSMIYHSHGMNDDFCGGYPMYFGLNADTDSLVYLMLANDFLHKKYPFMITIAEEVSGMPGICRPVEEGGQGFDYRLAMALPDMWIKILKHTSDEDWKIDDIVFNLENRRYAEKHVAYAESHDQALVGDKTIAFWLMDKEMYDFMSTDSPLTPIIDRGLSLHKLIRLITIGLGGEAWLNFIGNEFGHPEWLDFPRVGNGESFHYARRQFNLVDAEYLRYKFLNNWDREMMLLEERTGFLHKGYAYTSWKHDGDKTIVFERGGLVFVINLHPTKSFADYSIGVNTPGRYRIALNSDESKFGGHNRIDNSIKFHTTDDGYAGRRHRLQVYITCRTAIVLEKEDD | not soluble |
| MLLSRICRFRMLTRFTRLRPILQLRYLAQNSHIEEEYFEELEPTGIISSHETSQEPPKRTGFRSQNLSEDADFVENVVGALTDQRAKDVFVVKSEETEMTPYTHKIICSAFNSRQASAISENLRSLLKIDGVSNGSMSHARRSTKRSNGWYVSEVERVQVHVMSEECREKYDLEAIWAGDDRILDEIDEEKQKILLPPRR | not soluble |
| MLFIAFAPFGAFALEANSKNDGYSLDDIKYYKIFENEDIPKIMYALRQGDFEIIAELKNEWEIEEEDVSFEYTTSKNPLGELIRDNLYELGQKYEVFEDESDFVSKMNVWATAFTKSMMKKSSEQKDKLIVQTVNALDNLDETLNLFSERLREWYSLYFPEMDNIVKKHDIYVSLVSEYGDREEYTRTKLKKTMPSNVARTISLAAKESMGADVSEFDLKIMKNLADEIKSMYEYRESLQEYLETSMNEIAPNLTKVAGASLGARLISLAGGIERLLRLPASTIQVIGAEKALFAHLRERALPPKHGVIFQHPLIQGSPWWIHGKIARAISCKISIAIRADAFGNDISDMLIEDMNKKVAEIKEKFPEPTRKRRPRPDTRSFGNKGGQDRDRRSQGDRKPSGNRGDSKKGGKPFGKKPAGKDDRRDNRKGDRKPFGGKPKNSGNQPPKERSGEKRRDSTKKVKAERKVIGKTSSQNLEHHHHHH | soluble |
